Assay results from article PMC6459841, “Structural analyses of NudT16–ADP-ribose complexes direct rational design of mutants with improved processing of poly(ADP-ribosyl)ated proteins” (Scientific Reports, 2019).
Substitutions are numbered along the chain they refer to. Names may count otherwise.

B1: Homo sapiens NudT16 (HsNudT16) (enzyme, human)
chain: MAGARRLELGEALALGSGWRHVCHALLYAPDPGMLFGRIPLRYAILMQMRFDGRLGFPGGFVDTQDRSLEDGLNRELREELGEAAAAFRVERTDYRSSHVGSGPRVVAHFYAKRLTLEELLAVEAGATRAKDHGLEVLGLVRVPLYTLRDGVGGLPTFLENSFIGSAREQLLEALQDLGLLQSGSISGLKIPAHH
notes: carries A22V as in the Mammalian Gene Collection clone BC031215; subcloned in pNIC28-BSA4; Dimer in solution (SEC) and in the crystal; also called wild-type HsNudT16; native HsNudT16; source: E. coli CodonPlus RIPL, purified (Ni-NTA, TEV cleavage, anion exchange, SEC); not shown: His6, N-terminal, cleaved
B2: HsNudT16 F61S (enzyme, human)
chain: B1 chain with F61S
notes: also called F61S mutant; source: E. coli CodonPlus RIPL, purified (Ni-NTA, TEV cleavage, anion exchange, SEC); not shown: His6, N-terminal, cleaved
B3: HsNudT16 H24W (enzyme, human)
chain: B1 chain with H24W
notes: also called H24W mutant; source: E. coli CodonPlus RIPL, purified (Ni-NTA, TEV cleavage, anion exchange, SEC); not shown: His6, N-terminal, cleaved

Target: the molecule itself
Experiment: SEC; Superdex 75 10/300; 100 µL of each purified protein loaded at 0.3 mL/min, eluted over one column volume; Bio-Rad size standards; dimer to monomers

Stoichiometry N, 2:
B1, B2, B3
